Assays:
GST-ORAI1 (65-87) = biological target: T1, GST-ORAI1 (65-87) (Homo sapiens, UniProt Q96D31); experiment: GST pull down assay with GST-ORAI1 (65-87); assay type: binding
T1 construct: A plasmid encoding ORAI1 (65-87) as a GST fusion protein; made in house; host or cells: E. coli BL21 (DE3), pGEX-2T
Description: A conserved region of ORAI1 immediately preceding, and extending into, ORAI1 transmembrane segment 1 is implicated in channel opening (Feske et al., Nature 441: 179-185 (2006); Li et al., J. Biol. Chem. 282: 29448-29456 (2007); Park et al., Cell 136: 876-890 (2009); Derler et al., J. Biol. Chem. 284: 15903-15915 (2009)), and GFP-ORAI1 (48-91) expressed in mammalian cells co-immunoprecipitates with STIM1 (342-448) (Park et al., Cell 136: 876-890 (2009)). Here again, the protein-protein interaction is direct, because purified recombinant STIM1CT bound to purified GST-ORAI1 (65-87) (FIG. 2C).
(§1) The cDNAs encoding mouse STIM 1^CT fragments (residues 233-685, 233-666, 233-600, 233-531, 233-498, or 233-463) were amplified via PCR and cloned into the pProEX HTb vector (Invitrogen) between the BamHI and XhoI sites for expression as His-tagged proteins. For production of the C-terminal cytoplasmic tail of ORAI 1 as a GST fusion protein, coupled to GST through the flexible linker—GSGSRGSPEF—(SEQ ID NO: 1), cDNA encoding ORAI1 residues 259-301 was amplified using PCR and cloned into the pGEX-4T-1 vector (GE Healthcare) between the BamHI and NotI sites. A plasmid encoding ORAI1 (65-87) as a GST fusion protein with the linker—GSGGGS—(SEQ ID NO: 9) was produced by inserting the corresponding Cdna into the pGEX-2T vector (GE Healthcare). […]

GST-ORAI1^CT = biological target: T2, GST-ORAI1^CT (Homo sapiens, UniProt Q96D31); experiment: GST pull down assay with GST-ORAI1^CT (residues 259-301); assay type: binding; details: SDS-PAGE, Coomassie staining
T2 construct: cDNA encoding ORAI1 residues 259-301 was amplified using PCR; made in house; host or cells: E. coli BL21 (DE3), pGEX-4T-1
Description: Recruitment of ORAI1 to puncta by full-length STIM 1 depends on a direct or indirect interaction of STIM 1 with the C-terminal cytoplasmic tail of ORAI134,51. Therefore the direct interaction of recombinant STIM 1 proteins was next examined with a bacterially expressed fusion protein, GST-ORAI^CT, containing the cytoplasmic tail of ORAI1, residues 259-301. STIM 1^CT and the other STIM 1 fragments, except for STIM 1 (233-463), bound to GST-ORAI1^CT immobilized on resin (FIG. 2B). Binding was dependent on recognition of ORAI^CT, since there was no binding to GST alone. Because all input and bound proteins on the gel was visualized with Coomassie Brilliant Blue staining and detected no other proteins, the current experiment is unambiguous proof of a direct protein-protein interaction between STIM 1^CT and ORAI1^CT.
as §1, with “sites.” for “sites. A plasmid encoding ORAI1 (65-87) as a GST fusion protein with the linker—GSGGGS—(SEQ ID NO: 9) was produced by inserting the corresponding Cdna into the pGEX-2T vector (GE Healthcare).”

T1 sequence (Q96D31 65-87 limits assumed): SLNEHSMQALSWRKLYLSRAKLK
T2 sequence (Q96D31 259-301): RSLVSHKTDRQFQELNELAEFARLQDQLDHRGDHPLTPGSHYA

Substance: STIM1^CT: cytoplasmic region of STIM1, mouse residues 233-685, His-tagged recombinant protein expressed in E coli
- binding to purified GST-ORAI1 (65-87) (GST-ORAI1 (65-87)): bound
- strength of interaction compared with STIM1^CT-ORAI1^CT interaction (GST-ORAI1 (65-87)): weaker
- binding to GST-ORAI1^CT immobilized on resin (GST-ORAI1^CT): bound
